Laboratory results: patent US20260193644A1, “Compositions and Methods For Modulation of Tumor Suppressors and Oncogenes” (FLAGSHIP PIONEERING INNOVATIONS VII, LLC, priority 2022, published 2026)

Key:
[1] = target: CXCR4 (Homo sapiens, UniProt P61073); assay: PathHunter β-Arrestin CXCR4 human chemokine GPCR antagonist assay (gpcrMAX screening and hit-confirmation); type: cell-based; details: for % inhibition: hit-confirmation
Description: SEQ ID NO: 30949 blocks CXCR4 and cancer cell migration, making it suitable in the treatment of multiple cancers. Whereas SEQ ID NO: 34229 agonizes C3AR1, a key regulator of immune response and inflammation. The target proteins SEQ ID NO: 30949 and SEQ ID NO: 34229 were treated with gpcrMAX, which is a comprehensive panel covering 168 G protein-coupled receptors (GPCRs) from over 60 distinct receptor families. This panel utilizes PathHunter® β-Arrestin technology (Eurofins DiscoverX). PathHunter β-Arrestin GPCR cell lines are engineered to co-express the ProLink™ (PK) tagged GPCR and the Enzyme Acceptor (EA) tagged β-Arrestin. Activation of the GPCR-PK induces β-Arrestin-EA recruitment, forcing complementation of the two β-galactosidase enzyme fragments (EA and PK). The resulting functional enzyme hydrolyzes substrate to generate a chemiluminescent signal.
Cell Handling: PathHunter® cell lines were expanded from freezer stocks according to standard procedures. Cells were seeded in a total volume of 20 μL into white walled, 384-well microplates and incubated at 37° C. for the appropriate time prior to testing. […]
Signal Detection: Assay signal was generated through a single addition of 12.5 or 15 μL (50% v/v) of PathHunter® Detection reagent cocktail, followed by a one-hour incubation at room temperature. Microplates were read following signal generation with a PerkinElmer Envision™ instrument for chemiluminescent signal detection.
Data Analysis: Compound activity was analyzed using CBIS data analysis suite (ChemInnovation, CA). For agonist mode assays, percentage activity was calculated using the following formula: % Activity=100%×(mean RLU of test sample−mean RLU of vehicle control)/(mean MAX control ligand−mean RLU of vehicle control). For antagonist mode assays, percentage inhibition was calculated using the following formula: % Inhibition=100%×(1−(mean RLU of test sample−mean RLU of vehicle control)/(mean RLU of EC80 control−mean RLU of vehicle control)).

[2] = system: NAMALWA cells; assay: Chemotaxis assay (trans-well cell migration); type: cell-based; details: NAMALWA human Burkitt lymphoma cells; 24 hours; SDF-1 (CXCL-12)
Description: Chemotaxis Assay: NAMALWA cells (human Burkitt lymphoma cell line, ATCC) were cultured in serum-free ATCC formulated RPMI for 24 hr prior to the assay. After starvation, harvest cells and centrifuge at 1,000×g, for 5 minutes to pellet them. Resuspend the cell in a serum-free media. Using Cell Migration/Chemotaxis Assay Kit (96-well, 8 μm) from Abcam, add 150 μL of serum-free media containing desired chemoattractant to the bottom chamber. Then add 50,000 cells and desired inhibitor (or peptides) to each well of the top chamber. Place the plate and incubate at 37° C. in CO2 incubator for 24 hours. After incubation, add 110 μL of Cell Dye+Cell Dissociation Solution mix to each bottom well and incubate at 37° C. in CO2 incubator for an hour. After incubation remove the top chamber and read the plate at Ex/Em=530/590 nm.

Sequence of CXCR4 (P61073 whole entry): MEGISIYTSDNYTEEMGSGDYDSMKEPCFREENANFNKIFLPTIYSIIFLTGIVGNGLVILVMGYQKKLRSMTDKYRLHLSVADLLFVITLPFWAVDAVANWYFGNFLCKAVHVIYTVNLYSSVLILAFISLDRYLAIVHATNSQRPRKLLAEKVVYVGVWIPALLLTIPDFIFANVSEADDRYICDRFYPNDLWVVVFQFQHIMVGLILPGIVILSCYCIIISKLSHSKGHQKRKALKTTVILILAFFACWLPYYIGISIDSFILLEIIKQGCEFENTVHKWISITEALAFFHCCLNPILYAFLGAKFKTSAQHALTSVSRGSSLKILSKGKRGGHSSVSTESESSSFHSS

With “SEQ ID NO: 30949: novel peptide GPCR ligand that blocks CXCR4; sequence only in Sequence Listing (MTAFGLGIPTFLVMQPSGSQPRFPALTQNGVALVRTPLTSVYLRVRICRVLGPRSQPS; listed as Homo sapiens)” the “GPCR ligand mode at CXCR4” value ([1]; gpcrMAX panel) was “blocked CXCR4”, the “% inhibition” value ([1]; 0.3 μM) was ~ 80% and the “% inhibition” value ([1]; 1 μM) was ~ 80%. For the same substance, the chemotactic migration [2] was “significantly inhibit the chemotactic migration”.
